# Data from patent US20160002348A1.
# Biological target: properdin-bound C3b (human) (UniProt P27918)
# Experiment: ELISA, factor B titrated on C3b-coated plates with properdin
# human factor B, sequence (P00751 other isoform, or with tags, fused parts or gaps limits assumed): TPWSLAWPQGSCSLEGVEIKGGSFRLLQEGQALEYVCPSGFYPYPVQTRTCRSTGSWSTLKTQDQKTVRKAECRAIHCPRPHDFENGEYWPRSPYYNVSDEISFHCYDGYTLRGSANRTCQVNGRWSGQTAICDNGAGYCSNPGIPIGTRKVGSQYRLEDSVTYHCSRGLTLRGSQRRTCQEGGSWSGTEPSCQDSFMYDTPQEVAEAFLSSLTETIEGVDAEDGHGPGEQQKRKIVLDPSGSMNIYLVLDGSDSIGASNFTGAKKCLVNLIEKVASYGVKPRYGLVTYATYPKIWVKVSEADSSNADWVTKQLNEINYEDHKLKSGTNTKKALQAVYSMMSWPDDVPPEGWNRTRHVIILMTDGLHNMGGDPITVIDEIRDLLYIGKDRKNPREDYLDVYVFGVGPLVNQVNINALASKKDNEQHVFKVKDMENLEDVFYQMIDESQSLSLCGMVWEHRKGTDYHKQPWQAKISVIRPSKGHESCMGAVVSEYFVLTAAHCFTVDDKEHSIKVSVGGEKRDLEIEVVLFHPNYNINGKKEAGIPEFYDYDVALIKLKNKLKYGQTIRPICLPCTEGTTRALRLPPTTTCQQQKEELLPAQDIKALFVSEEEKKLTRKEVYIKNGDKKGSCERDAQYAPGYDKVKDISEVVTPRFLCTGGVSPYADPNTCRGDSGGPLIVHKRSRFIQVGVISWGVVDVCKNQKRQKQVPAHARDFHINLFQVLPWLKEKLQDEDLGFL
substance,measurement,value
human factor B (from UniProt P00751 26-764) (enzyme),Kd,1.11 nM
